± gives the standard deviation of the averaged measurements.
Assay: total protein half-life in vivo (active degradation + dilution); higher = more stable protein
[1] = E. coli NCM3722 delta-clpP delta-lon delta-hslV, growth: N-lim chemostat, doubling time 6 h
[2] = E. coli NCM3722 delta-clpP, growth: N-lim chemostat, doubling time 6 h
[3] = E. coli NCM3722 delta-hslV, growth: N-lim chemostat, doubling time 6 h
[4] = E. coli NCM3722 delta-lon, growth: N-lim chemostat, doubling time 6 h
[5] = E. coli NCM3722 delta-smpB, growth: N-lim chemostat, doubling time 6 h
[6] = wild type E. coli NCM3722, growth: C-lim chemostat, doubling time 3 h
[7] = wild type E. coli NCM3722, growth: C-lim chemostat, doubling time 6 h
[8] = wild type E. coli NCM3722, growth: C-lim chemostat, doubling time 12 h
[9] = wild type E. coli NCM3722, growth: N-lim chemostat, doubling time 6 h
[10] = wild type E. coli NCM3722, growth: N-lim chemostat, doubling time 12 h
[11] = wild type E. coli NCM3722, growth: P-lim chemostat, doubling time 6 h
[12] = wild type E. coli NCM3722, growth: P-lim chemostat, doubling time 12 h

Sequence	total protein half-life in vivo [1]	total protein half-life in vivo [2]	total protein half-life in vivo [3]	total protein half-life in vivo [4]	total protein half-life in vivo [5]	total protein half-life in vivo [6]	total protein half-life in vivo [7]	total protein half-life in vivo [8]	total protein half-life in vivo [9]	total protein half-life in vivo [10]	total protein half-life in vivo [11]	total protein half-life in vivo [12]
MAKNIQAIRGMNDYLPGETAIWQRIEGTLKNVLGSYGYSEIRLPIVEQTPLFKRAIGEVTDVVEKEMYTFEDRNGDSLTLRPEGTAGCVRAGIEHGLLYNQEQRLWYIGPMFRHERPQKGRYRQFHQLGCEVFGLQGPDIDAELIMLTARWWRALGISEHVTLELNSIGSLEARANYRDALVAFLEQHKEKLDEDCKRRMYTNPLRVLDSKNPEVQALLNDAPALGDYLDEESREHFAGLCKLLESAGIAYTVNQRLVRGLDYYNRTVFEWVTNSLGSQGTVCAGGRYDGLVEQLGGRATPAVGFAMGLERLVLLVQAVNPEFKADPVVDIYLVASGADTQSAAMALAERLRDELPGVKLMTNHGGGNFKKQFARADKWGARVAVVLGESEVANGTAVVKDLRSGEQTAVAQDSVAAHLRTLLG	5.71 ± 1.3 h	5.11 ± 0.23 h	5.44 ± 0.23 h	5.45 ± 0.52 h	4.85 ± 0.12 h	3.17 ± 0.23 h	6.14 ± 0.2 h	10.5 ± 0.68 h	4.8 ± 0.22 h	9.1857 ± 0.0011 h	5.98 ± 0.1 h	13.7 ± 0.34 h
MFALCDVNAFYASCETVFRPDLWGKPVVVLSNNDGCVIARNAEAKALGVKMGDPWFKQKDLFRRCGVVCFSSNYELYADMSNRVMSTLEELSPRVEIYSIDEAFCDLTGVRNCRDLTDFGREIRATVLQRTHLTVGVGIAQTKTLAKLANHAAKKWQRQTGGVVDLSNLERQRKLMSALPVDDVWGIGRRISKKLDAMGIKTVLDLADTDIRFIRKHFNVVLERTVRELRGEPCLQLEEFAPTKQEIICSRSFGERITDYPSMRQAICSYAARAAEKLRSEHQYCRFISTFIKTSPFALNEPYYGNSASVKLLTPTQDSRDIINAATRSLDAIWQAGHRYQKAGVMLGDFFSQGVAQLNLFDDNAPRPGSEQLMTVMDTLNAKEGRGTLYFAGQGIQQQWQMKRAMLSPRYTTRSSDLLRVK	5.93 h	–	–	–	–	–	–	–	–	–	–	–
MKTPLVTREGYEKLKQELNYLWREERPEVTKKVTWAASLGDRSENADYQYNKKRLREIDRRVRYLTKCLENLKIVDYSPQQEGKVFFGAWVEIENDDGVTHRFRIVGYDEIFGRKDYISIDSPMARALLKKEVGDLAVVNTPAGEASWYVNAIEYVKP	4.94 ± 0.26 h	3.85 ± 0.086 h	3.36 ± 0.21 h	4.34 ± 0.27 h	3.07 ± 0.3 h	2.83 ± 0.18 h	4.63 ± 0.26 h	7.33 ± 1.7 h	3.48 ± 0.33 h	5.226 ± 0.025 h	4.65 ± 0.57 h	8.01 ± 0.72 h
MRLIITFLMAWCLSWGAYAATAPDSKQITQELEQAKAAKPAQPEVVEALQSALNALEERKGSLERIKQYQQVIDNYPKLSATLRAQLNNMRDEPRSVSPGMSTDALNQEILQVSSQLLDKSRQAQQEQERAREIADSLNQLPQQQTDARRQLNEIERRLGTLTGNTPLNQAQNFALQSDSARLKALVDELELAQLSANNRQELARLRSELAEKESQQLDAYLQALRNQLNSQRQLEAERALESTELLAENSADLPKDIVAQFKINRELSAALNQQAQRMDLVASQQRQAASQTLQVRQALNTLREQSQWLGSSNLLGEALRAQVARLPEMPKPQQLDTEMAQLRVQRLRYEDLLNKQPLLRQIHQADGQPLTAEQNRILEAQLRTQRELLNSLLQGGDTLLLELTKLKVSNGQLEDALKEVNEATHRYLFWTSDVRPMTIAWPLEIAQDLRRLISLDTFSQLGKASVMMLTSKETILPLFGALILVGCSIYSRRYFTRFLERSAAKVGKVTQDHFWLTLRTLFWSILVASPLPVLWMTLGYGLREAWPYPLAVAIGDGVTATVPLLWVVMICATFARPNGLFIAHFGWPRERVSRGMRYYLMSIGLIVPLIMALMMFDNLDDREFSGSLGRLCFILICGALAVVTLSLKKAGIPLYLNKEGSGDNITNHMLWNMMIGAPLVAILASAVGYLATAQALLARLETSVAIWFLLLVVYHVIRRWMLIQRRRLAFDRAKHRRAEMLAQRARGEEEAHHHSSPEGAIEVDESEVDLDAISAQSLRLVRSILMLIALLSVIVLWSEIHSAFGFLENISLWDVTSTVQGVESLEPITLGAVLIAILVFIITTQLVRNLPALLELAILQHLDLTPGTGYAITTITKYLLMLIGGLVGFSMIGIEWSKLQWLVAALGVGLGFGLQEIFANFISGLIILFEKPIRIGDTVTIRDLTGSVTKINTRATTISDWDRKEIIVPNKAFITEQFINWSLSDSVTRVVLTIPAPADANSEEVTEILLTAARRCSLVIDNPAPEVFLVDLQQGIQIFELRIYAAEMGHRMPLRHEIHQLILAGFHAHGIDMPFPPFQMRLESLNGKQTGRTLTSAGKGRQAGSL	6.45 ± 0.14 h	6.87 ± 1.2 h	6.3 ± 0.62 h	6.27 ± 0.29 h	5.67 ± 0.52 h	3.35 ± 0.12 h	6.73 ± 0.79 h	13.1 ± 1.4 h	6.49 ± 0.46 h	13.3 ± 2.1 h	5.95 ± 0.7 h	12.8 ± 0.24 h
MSSEKLYSPLKVGAITAANRIFMAPLTRLRSIEPGDIPTPLMAEYYRQRASAGLIISEATQISAQAKGYAGAPGIHSPEQIAAWKKITAGVHAENGHMAVQLWHTGRISHASLQPGGQAPVAPSALSAGTRTSLRDENGQAIRVETSMPRALELEEIPGIVNDFRQAIANAREAGFDLVELHSAHGYLLHQFLSPSSNHRTDQYGGSVENRARLVLEVVDAGIEEWGADRIGIRVSPIGTFQNTDNGPNEEADALYLIEQLGKRGIAYLHMSEPDWAGGEPYTDAFREKVRARFHGPIIGAGAYTVEKAETLIGKGLIDAVAFGRDWIANPDLVARLQRKAELNPQRAESFYGGGAEGYTDYPTL	5.08 ± 0.17 h	2.14 ± 0.038 h	1.51 ± 0.027 h	–	1.5 ± 0.061 h	2.13 ± 0.48 h	2.98 ± 0.53 h	3.17 ± 0.57 h	1.66 ± 0.12 h	2.097 ± 0.015 h	1.55 ± 0.16 h	2.85 ± 1.7 h
MFTFIKKVIKTGTATSSYPLEPIAVDKNFRGKPEQNPQQCIGCAACVNACPSNALTVETDLATGELAWEFNLGHCIFCGRCEEVCPTAAIKLSQEYELAVWKKEDFLQQSRFALCNCRVCNRPFAVQKEIDYAIALLKHNGDSRAENHRESFETCPECKRQKCLVPSDRIELTRHMKEAI	2.95 h	–	–	–	–	–	–	–	–	–	–	–
MNISSLRKAFIFMGAVAALSLVNAQSALAANESAKDMTCQEFIDLNPKAMTPVAWWMLHEETVYKGGDTVTLNETDLTQIPKVIEYCKKNPQKNLYTFKNQASNDLPN [P0AET2]	–	> 8 h	–	–	–	–	–	–	–	–	–	–
MINDIKWVQAQRKATDWRQAVEIATRPLVAYGAAQPCYVNGIIENTLNWGPYYLIAPGIALPHARPEQGANYNQVSITTLRTPVAFGNEECDPVWLLLCVSATDANAHILTIQRISQFIDSPQRLTAVGNASTDDALFALVSG	4.94 h	4.17 ± 0.58 h	4.11 h	4.24 ± 0.33 h	4.08 ± 0.47 h	–	4.65 ± 0.36 h	6.74 ± 0.098 h	4.66 h	8.43 ± 2.6 h	6.04 h	–
MKVAKDLVVSLAYQVRTEDGVLVDESPVSAPLDYLHGHGSLISGLETALEGHEVGDKFDVAVGANDAYGQYDENLVQRVPKDVFMGVDELQVGMRFLAETDQGPVPVEITAVEDDHVVVDGNHMLAGQNLKFNVEVVAIREATEEELAHGHVHGAHDHHHDHDHDGCCGGHGHDHGHEHGGEGCCGGKGNGGCGCH [P0A9K9]	4.87 ± 0.55 h	4.07 ± 0.042 h	3.46 ± 0.26 h	4.18 ± 0.1 h	3.3811 ± 0.00031 h	2.88 ± 0.18 h	4.63 ± 0.15 h	8.14 ± 0.37 h	3.47 ± 0.24 h	5.28 ± 0.73 h	4.54 ± 0.53 h	8.69 ± 0.066 h

Reference: the supplement of paper PMC11246515
